The supplement of paper PMC9112550, “Optimization of the antimicrobial peptide Bac7 by deep mutational scanning” (BMC Biology, 2022)

Test system: Escherichia coli TOP10
Assay: shrunken log2 fold change of peptide-encoding DNA abundance (4.5 h post-induction vs induction); higher = less antimicrobial activity (less host growth inhibition)
Details: time post-induction: 4.5 h; library: site-saturation at positions 5, 18, 19, 20
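Also: peptides expressed intracellularly from a pBAD plasmid library in pooled LB shake-flask culture, induced with 0.3% L-arabinose, DNA abundance read by NGS, three biological replicates, DESeq2 with apeglm shrinkage.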

| Sequence | shrunken log2 fold change |
| --- | --- |
| RRIRERPPRLPRPRPRPVCHPRP | -0.309 |
| RRIRLRPPRLPRPRPRPRKIPRP | 0.103 |
| RRIRWRPPRLPRPRPRPLGTPRP | 0.0928 |
| RRIRVRPPRLPRPRPRPKYEPRP | 0.0383 |
| RRIRWRPPRLPRPRPRPFCTPRP | -0.137 |
| RRIRFRPPRLPRPRPRPTQHPRP | 0.168 |
| RRIRARPPRLPRPRPRPAWDPRP | 0.858 |
| RRIRERPPRLPRPRPRPCQEPRP | -0.181 |
| RRIRRRPPRLPRPRPRPVADPRP | 0.228 |
| RRIRYRPPRLPRPRPRPVYPPRP | -0.208 |
| RRIRHRPPRLPRPRPRPKYSPRP | -0.489 |
| RRIRTRPPRLPRPRPRPVYHPRP | -1.34 |
| RRIRNRPPRLPRPRPRPVGEPRP | 0.112 |
| RRIRSRPPRLPRPRPRPLEWPRP | 0.14 |
| RRIRNRPPRLPRPRPRPVDWPRP | 0.218 |
| RRIRQRPPRLPRPRPRPRIAPRP | 0.111 |
| RRIRARPPRLPRPRPRPRNFPRP | -0.0153 |
| RRIRDRPPRLPRPRPRPSWTPRP | -0.274 |
| RRIRNRPPRLPRPRPRPTAFPRP | 0.00576 |
| RRIRCRPPRLPRPRPRPMNHPRP | -0.658 |
| RRIRHRPPRLPRPRPRPWMGPRP | -0.205 |
| RRIRCRPPRLPRPRPRPNKNPRP | -0.344 |
| RRIRKRPPRLPRPRPRPEQSPRP | 0.94 |
| RRIRYRPPRLPRPRPRPLNFPRP | -1.01 |
| RRIRVRPPRLPRPRPRPNLLPRP | -0.22 |

| Sequence | shrunken log2 fold change |
| --- | --- |
| RRIRERPPRLPRPRPRPWMNPRP | -0.0137 |
| RRIRLRPPRLPRPRPRPVFRPRP | 0.0694 |
| RRIRERPPRLPRPRPRPYLWPRP | -0.431 |
| RRIRKRPPRLPRPRPRPWWHPRP | 0.047 |
| RRIRRRPPRLPRPRPRPPIRPRP | 2.1 |
| RRIRYRPPRLPRPRPRPFYMPRP | -0.258 |
| RRIRGRPPRLPRPRPRPHEDPRP | 3.55 |
| RRIRCRPPRLPRPRPRPNKDPRP | -0.534 |
| RRIRKRPPRLPRPRPRPWLQPRP | -0.0256 |
| RRIRVRPPRLPRPRPRPPLTPRP | 0.119 |
| RRIRQRPPRLPRPRPRPQNFPRP | -0.0918 |
| RRIRDRPPRLPRPRPRPKGAPRP | 0.368 |
| RRIRWRPPRLPRPRPRPWCFPRP | -0.0366 |
| RRIRRRPPRLPRPRPRPEAMPRP | -0.0491 |
| RRIRSRPPRLPRPRPRPMTDPRP | -0.222 |
| RRIRVRPPRLPRPRPRPTACPRP | -0.124 |
| RRIRPRPPRLPRPRPRPVMNPRP | -0.29 |
| RRIRFRPPRLPRPRPRPEDPPRP | 0.379 |
| RRIRIRPPRLPRPRPRPDLWPRP | 0.078 |
| RRIRYRPPRLPRPRPRPQTCPRP | -0.0146 |
| RRIRTRPPRLPRPRPRPQYQPRP | -0.502 |
| RRIRGRPPRLPRPRPRPSLPPRP | 0.178 |
| RRIRVRPPRLPRPRPRPYQWPRP | -0.175 |
| RRIRGRPPRLPRPRPRPVHCPRP | 0.0385 |
| RRIRCRPPRLPRPRPRPTSVPRP | 0.0631 |

| Sequence | shrunken log2 fold change |
| --- | --- |
| RRIRGRPPRLPRPRPRPQSFPRP | 0.218 |
| RRIRSRPPRLPRPRPRPVCAPRP | 0.386 |
| RRIRARPPRLPRPRPRPKCPPRP | -0.0505 |
| RRIRIRPPRLPRPRPRPRMWPRP | -0.0292 |
| RRIRERPPRLPRPRPRPLHLPRP | -0.0385 |
| RRIRARPPRLPRPRPRPFCWPRP | 0.401 |
| RRIRLRPPRLPRPRPRPNIVPRP | -0.00437 |
| RRIRSRPPRLPRPRPRPNSRPRP | -0.105 |
| RRIRRRPPRLPRPRPRPAENPRP | 0.0557 |
| RRIRSRPPRLPRPRPRPTYDPRP | -0.262 |
| RRIRYRPPRLPRPRPRPWLAPRP | 0.00503 |
| RRIRERPPRLPRPRPRPFPIPRP | 0.118 |
| RRIRTRPPRLPRPRPRPTNRPRP | 0.0146 |
| RRIRTRPPRLPRPRPRPLHTPRP | -0.161 |
| RRIRWRPPRLPRPRPRPSPFPRP | -0.245 |
| RRIRLRPPRLPRPRPRPHTFPRP | -0.0496 |
| RRIRIRPPRLPRPRPRPHPWPRP | -0.319 |
| RRIRNRPPRLPRPRPRPADCPRP | 0.131 |
| RRIRFRPPRLPRPRPRPTQCPRP | 0.322 |
| RRIRNRPPRLPRPRPRPMNVPRP | -0.00101 |
| RRIRNRPPRLPRPRPRPTLDPRP | 0.221 |
| RRIRKRPPRLPRPRPRPEEGPRP | 0.0325 |
| RRIRTRPPRLPRPRPRPEQKPRP | 0.154 |
| RRIRPRPPRLPRPRPRPGELPRP | 0.192 |
| RRIRRRPPRLPRPRPRPMDWPRP | 0.516 |

| Sequence | shrunken log2 fold change |
| --- | --- |
| RRIRPRPPRLPRPRPRPRKIPRP | -0.0764 |
| RRIRSRPPRLPRPRPRPVWAPRP | 0.67 |
| RRIRERPPRLPRPRPRPPRYPRP | -0.202 |
| RRIRKRPPRLPRPRPRPQDEPRP | -0.0149 |
| RRIRCRPPRLPRPRPRPAGMPRP | 0.104 |
| RRIRMRPPRLPRPRPRPPDRPRP | 1.26 |
| RRIRMRPPRLPRPRPRPKCMPRP | 0.745 |
| RRIRMRPPRLPRPRPRPVWQPRP | 0.752 |
| RRIRERPPRLPRPRPRPCCEPRP | -0.366 |
| RRIRYRPPRLPRPRPRPTEEPRP | -0.2 |
| RRIRKRPPRLPRPRPRPQRCPRP | 0.269 |
| RRIRQRPPRLPRPRPRPYLYPRP | -0.838 |
| RRIRQRPPRLPRPRPRPLPYPRP | -0.202 |
| RRIRIRPPRLPRPRPRPVLAPRP | -0.0133 |
| RRIRCRPPRLPRPRPRPHRCPRP | -0.128 |
| RRIRARPPRLPRPRPRPSQDPRP | 0.196 |
| RRIRSRPPRLPRPRPRPCHPPRP | 0.0162 |
| RRIRQRPPRLPRPRPRPWVEPRP | 0.0249 |
| RRIRKRPPRLPRPRPRPRHLPRP | 0.218 |
| RRIRCRPPRLPRPRPRPDAIPRP | -0.0147 |
| RRIRARPPRLPRPRPRPRGHPRP | 0.644 |
| RRIRPRPPRLPRPRPRPLPAPRP | 0.864 |
| RRIRLRPPRLPRPRPRPEHMPRP | -0.336 |
| RRIRVRPPRLPRPRPRPVNHPRP | -0.306 |
| RRIRGRPPRLPRPRPRPYITPRP | -0.302 |

| Sequence | shrunken log2 fold change |
| --- | --- |
| RRIRHRPPRLPRPRPRPSNVPRP | -0.00144 |
| RRIRHRPPRLPRPRPRPGKLPRP | 0.169 |
| RRIRARPPRLPRPRPRPCNIPRP | -0.671 |
| RRIRWRPPRLPRPRPRPNRAPRP | 0.0222 |
| RRIRYRPPRLPRPRPRPNTDPRP | -0.964 |
| RRIRTRPPRLPRPRPRPMNLPRP | -0.348 |
| RRIRCRPPRLPRPRPRPIITPRP | -0.892 |
| RRIRFRPPRLPRPRPRPIQKPRP | 0.00595 |
| RRIRIRPPRLPRPRPRPWEGPRP | -0.152 |
| RRIRPRPPRLPRPRPRPFYRPRP | 0.0278 |
| RRIRKRPPRLPRPRPRPPGKPRP | 0.756 |
| RRIRNRPPRLPRPRPRPCIIPRP | -0.0176 |
| RRIRVRPPRLPRPRPRPMIFPRP | -0.213 |
| RRIRLRPPRLPRPRPRPQDVPRP | -0.0265 |
| RRIRWRPPRLPRPRPRPHGQPRP | -0.0861 |
| RRIRFRPPRLPRPRPRPHMRPRP | -0.0696 |
| RRIRERPPRLPRPRPRPCLKPRP | 0.0135 |
| RRIRNRPPRLPRPRPRPQCSPRP | -0.148 |
| RRIRDRPPRLPRPRPRPVKGPRP | 0.0617 |
| RRIRARPPRLPRPRPRPTTGPRP | 0.331 |
| RRIRLRPPRLPRPRPRPLFGPRP | -0.0652 |
| RRIRYRPPRLPRPRPRPPQPPRP | 0.436 |
| RRIRCRPPRLPRPRPRPHFYPRP | -0.305 |
| RRIRYRPPRLPRPRPRPKGYPRP | -0.0889 |
| RRIRQRPPRLPRPRPRPCPHPRP | -0.141 |
